The record followed here is patent US20230038638A1, “COMPLEMENT FACTOR I-RELATED COMPOSITIONS AND METHODS” (published 2023).

The target in one assay is T1, human C4b (human) (UniProt P0C0L5).
T1 sequence: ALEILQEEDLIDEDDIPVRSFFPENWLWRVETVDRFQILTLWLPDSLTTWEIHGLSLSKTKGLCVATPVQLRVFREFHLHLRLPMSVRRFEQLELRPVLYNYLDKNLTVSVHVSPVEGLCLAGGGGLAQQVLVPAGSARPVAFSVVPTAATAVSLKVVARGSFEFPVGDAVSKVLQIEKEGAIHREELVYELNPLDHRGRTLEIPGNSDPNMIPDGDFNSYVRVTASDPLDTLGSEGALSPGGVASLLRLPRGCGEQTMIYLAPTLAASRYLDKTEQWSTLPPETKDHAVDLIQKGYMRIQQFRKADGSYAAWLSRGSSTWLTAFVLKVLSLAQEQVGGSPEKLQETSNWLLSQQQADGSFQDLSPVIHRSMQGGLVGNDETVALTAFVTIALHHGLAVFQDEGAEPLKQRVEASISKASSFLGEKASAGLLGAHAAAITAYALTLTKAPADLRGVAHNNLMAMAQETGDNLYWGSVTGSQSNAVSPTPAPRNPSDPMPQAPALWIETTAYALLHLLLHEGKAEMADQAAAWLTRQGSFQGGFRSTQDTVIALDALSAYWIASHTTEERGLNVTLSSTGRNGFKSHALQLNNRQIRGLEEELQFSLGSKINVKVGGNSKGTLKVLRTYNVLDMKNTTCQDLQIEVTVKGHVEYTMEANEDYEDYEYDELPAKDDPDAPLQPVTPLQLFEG

The target of assay [1] is soluble human C3b (human) (UniProt P01024).

Take CFI-HSA Y408L; E457G; E530Y (enzyme): the C4b Screen Ref Fold (fold vs CFI-HSA wild type) with human C4b (human) was 2. Moreover, the iC3b Screen Ref Fold (fold vs CFI-HSA wild type) in assay [1] came to 1.12.
Taken in the same sequence, the figures for “CFI-HSA Y408L; E457G; N531G; D425R; E530Y (enzyme)” were 4.1 and 1.08.
Taken in the same sequence, the figures for “CFI-HSA Y408L; E457G; N531G; E530Y (enzyme)” were 4.16 and 2.07.
Regarding “CFI-HSA Y408L; E457G; R462K; F464Y; N531G; GGSSGG (SEQ ID NO: 6); CR1 (ccp15-17) (from UniProt P17927) (enzyme)”, in the assay with human C4b (human), the C4b Screen Ref Fold (fold vs CFI-HSA wild type) came out at 2.74. Besides, the iC3b Screen Ref Fold (fold vs CFI-HSA wild type) in assay [1] was found to be 0.02.
CFI-HSA Y408L; E530Y (enzyme): in the assay with human C4b (human), the C4b Screen Ref Fold (fold vs CFI-HSA wild type) amounted to 0.33. In addition, the iC3b Screen Ref Fold (fold vs CFI-HSA wild type) in assay [1] came out at 1.93.
Taken in the same sequence, the figures for “CFI-HSA Y408L; N531G; D425R; E530Y (enzyme)” were 2.99 and 2.08.
As for CFI-HSA Y408L; N531G; E530Y (enzyme), in the assay with human C4b (human), the C4b Screen Ref Fold (fold vs CFI-HSA wild type) is 2.25. The iC3b Screen Ref Fold (fold vs CFI-HSA wild type) in assay [1] was 2.11.
Taken in the same sequence, the figures for CFI-HSA Y408L; N531G; R557A (enzyme) were 3.77 and 0.77.
Taken in the same sequence, the figures for “CFI-HSA Y408L; N531G; ΔC-term (Δ558-PFISQYNV (SEQ ID NO: 14)-565) (enzyme)” were 1.85 and 0.3.
Consider CFI-HSA Y553A (enzyme), for which, in the assay with human C4b (human), the C4b Screen Ref Fold (fold vs CFI-HSA wild type) was 0.52. For the same substance, the iC3b Screen Ref Fold (fold vs CFI-HSA wild type) in assay [1] worked out at 1.1.
With CFI-HSA Y553E (enzyme), in the assay with human C4b (human), the C4b Screen Ref Fold (fold vs CFI-HSA wild type) turned out to be 0.51. The iC3b Screen Ref Fold (fold vs CFI-HSA wild type) in assay [1] stood at 0.38.
Taken in the same sequence, the figures for CFI-HSA Y553G (enzyme) were 0.48 and 0.88.
For CFI-HSA Y553H (enzyme) the same measures were 1.56 and 1.11.
For the substance CFI-HSA Y553I (enzyme), in the assay with human C4b (human), the C4b Screen Ref Fold (fold vs CFI-HSA wild type) worked out at 0.51. For the same substance, in assay [1], the iC3b Screen Ref Fold (fold vs CFI-HSA wild type) came to 1.06.
Taken in the same sequence, the figures for CFI-HSA Y553K (enzyme) were 1.49 and 1.12.
Taken in the same sequence, the figures for CFI-HSA Y553L (enzyme) were 0.67 and 0.93.
As to CFI-HSA Y553N (enzyme), the C4b Screen Ref Fold (fold vs CFI-HSA wild type) in the assay with human C4b (human) is 0.6. Further, the iC3b Screen Ref Fold (fold vs CFI-HSA wild type) in assay [1] was determined as 0.63.
On to CFI-HSA Y553Q (enzyme), for which the C4b Screen Ref Fold (fold vs CFI-HSA wild type) with human C4b (human) was found to be 0.77. The iC3b Screen Ref Fold (fold vs CFI-HSA wild type) in assay [1] worked out at 1.09.
In the case of CFI-HSA Y553R (enzyme), in the assay with human C4b (human), the C4b Screen Ref Fold (fold vs CFI-HSA wild type) was determined as 0.78. In addition, the iC3b Screen Ref Fold (fold vs CFI-HSA wild type) in assay [1] turned out to be 1.38.
For CFI-HSA Y553S (enzyme), the C4b Screen Ref Fold (fold vs CFI-HSA wild type) with human C4b (human) came to 0.76. Further, the iC3b Screen Ref Fold (fold vs CFI-HSA wild type) in assay [1] amounted to 0.93.
For CFI-HSA Y553V (enzyme) the same measures were 0.37 and 1.1.
Turning to “CFI-HSA variant 420-DGNK (SEQ ID NO: 15)-424 --> GG (enzyme)”, in the assay with human C4b (human), the C4b Screen Ref Fold (fold vs CFI-HSA wild type) was determined as 0.07. Also, in assay [1], the iC3b Screen Ref Fold (fold vs CFI-HSA wild type) came to 0.15.
Turning to “CFI-HSA variant 514-MDANNVT (SEQ ID NO: 13)-520 --> NG (enzyme)”, in the assay with human C4b (human), the C4b Screen Ref Fold (fold vs CFI-HSA wild type) turned out to be 0.12. Moreover, in assay [1], the iC3b Screen Ref Fold (fold vs CFI-HSA wild type) worked out at 0.04.
For CFI-HSA variant A328C; W468C (enzyme) the same measures were -0.06 and 0.
As to “CFI-HSA variant A328C; W468C; K326Y; R327N (enzyme)”, in the assay with human C4b (human), the C4b Screen Ref Fold (fold vs CFI-HSA wild type) came to 0.15. Further, the iC3b Screen Ref Fold (fold vs CFI-HSA wild type) in assay [1] is 0.01.
With CFI-HSA variant A361G (enzyme), the C4b Screen Ref Fold (fold vs CFI-HSA wild type) with human C4b (human) is 0.84. Besides, the iC3b Screen Ref Fold (fold vs CFI-HSA wild type) in assay [1] amounted to 0.64.
In the assay with human C4b (human), “CFI-HSA variant D425K; E457G; E461Q; N531G; R557A (enzyme)” came in with a C4b Screen Ref Fold (fold relative to CFI-HSA wild type) of 2.8. For the same substance, in assay [1], the iC3b Screen Ref Fold (fold relative to CFI-HSA wild type) came out at 0.08.
For the substance “CFI-HSA variant D425R; Y408L; N531G; E457G; E461Q; R462K; F464Y; E416A (enzyme)”, the C4b Screen Ref Fold (fold of CFI-HSA wild type) with human C4b (human) was 3.88. For the same substance, in assay [1], the iC3b Screen Ref Fold (fold of CFI-HSA wild type) was determined as 1.63.
Consider CFI-HSA variant D506A (enzyme), for which, in the assay with human C4b (human), the C4b Screen Ref Fold (fold vs CFI-HSA wild type) was found to be 0.02. In addition, in assay [1], the iC3b Screen Ref Fold (fold vs CFI-HSA wild type) is 0.
For CFI-HSA variant D506E (enzyme), the C4b Screen Ref Fold (fold vs CFI-HSA wild type) with human C4b (human) worked out at 0.01. Further, in assay [1], the iC3b Screen Ref Fold (fold vs CFI-HSA wild type) is 0.
For CFI-HSA variant D506V (enzyme) the same measures were 0.06 and 0.
For CFI-HSA variant E38A; D425R (enzyme) the same measures were 0.96 and 0.83.
In the assay with human C4b (human), “CFI-HSA variant E457G; E461Q; R462K; F464Y; N531G; GGSSGG (SEQ ID NO: 6); CR1(ccp15-17) (from UniProt P17927) (enzyme)” yielded a C4b Screen Ref Fold (fold of CFI-HSA wild type) of 5.42. Besides, the iC3b Screen Ref Fold (fold of CFI-HSA wild type) in assay [1] was -0.01.
Substance “CFI-HSA variant E457G; GGSSGG (SEQ ID NO: 6); CR1(ccp1-3) (from UniProt P17927) (enzyme)” had a C4b Screen Ref Fold (fold of CFI-HSA wild type) with human C4b (human) of 1.73. Further, the iC3b Screen Ref Fold (fold of CFI-HSA wild type) in assay [1] was -0.04.
For “CFI-HSA variant E457G; N531G; P535G; P558S (enzyme)” the same measures were 1.56 and 0.87.
Substance “CFI-HSA variant E457G; N531G; P535G; WT; GGSSGG (SEQ ID NO: 6); CR1(ccp15-17) (from UniProt P17927) (enzyme)” showed a C4b Screen Ref Fold (fold of CFI-HSA wild type) with human C4b (human) of 5.82. Further, the iC3b Screen Ref Fold (fold of CFI-HSA wild type) in assay [1] came to 0.03.
For “CFI-HSA variant E457G; N531G; WT; GGSSGG (SEQ ID NO: 6); CR1(ccp15-17) (from UniProt P17927) (enzyme)” the same measures were 4.95 and 0.15.
For “CFI-HSA variant E457G; P535G; N422K (enzyme)” the same measures were 1.87 and 1.43.
For “CFI-HSA variant E457G; P535G; WT; GGSSGG (SEQ ID NO: 6); CR1(ccp15-17) (from UniProt P17927) (enzyme)” the same measures were 3.89 and 0.07.
In the assay with human C4b (human), “CFI-HSA variant E457G; WT; GGSSGG (SEQ ID NO: 6); CR1(ccp15-17) (from UniProt P17927) (enzyme)” registered a C4b Screen Ref Fold (fold of CFI-HSA wild type) of 6.11. In addition, in assay [1], the iC3b Screen Ref Fold (fold of CFI-HSA wild type) came out at 0.1.
